From paper PMC8498969, “An Integrated Systems Biology Approach Identifies the Proteasome as A Critical Host Machinery for ZIKV and DENV Replication” (Genomics, Proteomics & Bioinformatics, 2021) come the findings set out here.

Test [1] concerns the target T1, DDX49 on the HuProt array (human, UniProt Q9Y6V7 1-483).
T1 construct: DDX49, human; array proteins are said to come from full-length genes; source: immobilised on the Human Proteome Microarray v3.0 (HuProt array)
T1 sequence (looked up): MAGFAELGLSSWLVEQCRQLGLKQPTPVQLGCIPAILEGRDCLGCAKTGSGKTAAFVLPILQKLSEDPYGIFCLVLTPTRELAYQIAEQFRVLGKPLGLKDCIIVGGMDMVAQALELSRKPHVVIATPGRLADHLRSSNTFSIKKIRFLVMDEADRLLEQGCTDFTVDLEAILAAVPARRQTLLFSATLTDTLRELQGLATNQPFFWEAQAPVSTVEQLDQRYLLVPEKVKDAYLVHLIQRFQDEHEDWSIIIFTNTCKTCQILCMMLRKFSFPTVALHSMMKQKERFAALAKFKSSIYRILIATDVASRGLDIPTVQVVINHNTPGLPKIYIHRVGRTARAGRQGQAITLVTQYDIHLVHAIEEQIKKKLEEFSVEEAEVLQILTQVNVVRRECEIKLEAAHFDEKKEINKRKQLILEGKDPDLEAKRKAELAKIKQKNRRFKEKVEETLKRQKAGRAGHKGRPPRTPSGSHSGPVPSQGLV
The experiment in a line: peptide or protein array. Particulars: both partners purified.

The next test deals with T2, PLEK on the HuProt array (human, UniProt P08567 1-350).
T2 construct: PLEK (pleckstrin), human; array proteins are said to come from full-length genes; source: immobilised on the Human Proteome Microarray v3.0 (HuProt array)
T2 sequence (looked up): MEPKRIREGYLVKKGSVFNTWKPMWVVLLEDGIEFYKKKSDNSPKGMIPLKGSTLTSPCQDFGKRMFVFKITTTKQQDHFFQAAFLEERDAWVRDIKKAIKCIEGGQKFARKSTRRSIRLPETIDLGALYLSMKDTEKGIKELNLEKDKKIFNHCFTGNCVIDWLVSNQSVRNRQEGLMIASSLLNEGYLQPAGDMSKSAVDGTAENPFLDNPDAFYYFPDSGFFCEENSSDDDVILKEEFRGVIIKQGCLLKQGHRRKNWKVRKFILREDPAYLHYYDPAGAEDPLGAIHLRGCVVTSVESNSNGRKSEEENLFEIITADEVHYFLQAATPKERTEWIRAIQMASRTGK
The experiment in a line: peptide or protein array. The conditions noted are these: both partners purified.

B1: ZIKV-NS4B, N-terminal GST fusion, Cy5-labelled (natural protein)
chain: NELGWLERTKNDIAHLMGRREEGATMGFSMDIDLRPASAWAIYAALTTLITPAVQHAVTTSYNNYSLMAMATQAGVLFGMGKGMPFMHGDLGVPLLMMGCYSQLTPLTLIVAIILLVAHYMYLIPGLQAAAARAAQKRTAAGIMKNPVVDGIVVTDIDTMTIDPQVEKKMGQVLLIAVAISSAVLLRTAWGWGEAGALITAATSTLWEGSPNKYWNSSTATSLCNIFRGSYLAGASLIYTVTRNAGLVKRR
modifications: Cy5 (NHS-tethered dye), sites not stated
notes: also called SN4B; source: yeast (vector pEGH-A), purified on glutathione beads; not shown: GST, N-terminal, kept
Regarding B1, the binding result in test [1] was “binds”.

B2: ZIKV-NS2A, N-terminal GST fusion, Cy5-labelled (natural protein)
chain: GSTDHMDHFSLGVLVILLMVQEGLKKRMTTKIIMSTSMAVLVVMILGGFSMSDLAKLVILMGATFAEMNTGGDVAHLALVAAFKVRPALLVSFIFRANWTPRESMLLALASCLLQTAISALEGDLMVLINGFALAWLAIRAMAVPRTDNIALPILAALTPLARGTLLVAWRAGLATCGGIMLLSLKGKGSVKKNLPFVMALGLTAVRVVDPINVVGLLLLTRSGKR
modifications: Cy5 (NHS-tethered dye), sites not stated
notes: source: yeast (vector pEGH-A), purified on glutathione beads; not shown: GST, N-terminal, kept
B2: the binding result with PLEK on the HuProt array is “binds”.
